Experimental findings from publication PMC10119233 are described below.

In experiment [1] the target is N4_(10-14)Fc, Notch4 EGF-like repeats 10–14 fused to human IgG Fc (human) (UniProt Q99466). In words: mass photometry; purified Notch decoys; oligomeric state.
Experiment [2] deals with Recombinant Fc-tagged hDLL4 (human) (UniProt Q9NR61). In words: SPR; Biacore T200, CM5 chip; hDLL4-Fc or hJAG1-Fc on the chip (amine coupling by the results; captured after immobilising human IgG Fc by the methods), up to 20,000 RU; N1_(10-14)Fc or N4_(10-14)Fc as analyte, multi-cycle kinetics; HBS-N (10 mM HEPES, 150 mM NaCl), 0.005% Tween 20, 1 mM CaCl2, 2 mM MgCl2, pH 7.4; 25 °C, 25 μl/min; KD = kd/ka.
Sequence of Recombinant Fc-tagged hDLL4 (human) (Q9NR61 27-529): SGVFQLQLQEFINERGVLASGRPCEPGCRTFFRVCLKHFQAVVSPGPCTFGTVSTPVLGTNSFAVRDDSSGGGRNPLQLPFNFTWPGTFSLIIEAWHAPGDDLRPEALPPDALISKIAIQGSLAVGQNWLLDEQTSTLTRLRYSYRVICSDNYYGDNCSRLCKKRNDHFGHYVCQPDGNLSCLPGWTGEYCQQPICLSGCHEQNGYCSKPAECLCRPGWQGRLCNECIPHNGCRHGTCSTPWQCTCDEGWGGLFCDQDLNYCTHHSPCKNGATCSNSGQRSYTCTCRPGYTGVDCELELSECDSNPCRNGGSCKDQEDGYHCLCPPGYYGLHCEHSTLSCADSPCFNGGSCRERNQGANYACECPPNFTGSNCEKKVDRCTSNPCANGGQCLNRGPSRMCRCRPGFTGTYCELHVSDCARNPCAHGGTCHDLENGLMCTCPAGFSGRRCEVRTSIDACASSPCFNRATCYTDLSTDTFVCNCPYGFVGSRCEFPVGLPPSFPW

In experiment [3] the target is N1_(10-14)Fc, Notch1 EGF-like repeats 10–14 fused to human IgG Fc (human) (UniProt P46531). In words: mass photometry; purified Notch decoys; oligomeric state.

Regarding “N4_(10-14)Fc, Notch4 EGF-like repeats 10–14 fused to human IgG Fc (from UniProt Q99466 24-2003) (Fc fusion)”, in experiment [1], the stoichiometry N stood at 2. In addition, the dissociation constant (Kd) in experiment [2] stood at 963 nM. In turn, “N1_(10-14)Fc, Notch1 EGF-like repeats 10–14 fused to human IgG Fc (from UniProt P46531 19-2555) (Fc fusion)” registered a stoichiometry N in experiment [3] of 2.
